The text below walks through data of paper PMC12585908, “Proteolytic cleavage activates the mitochondrial isoform of TOP3A”.

This data set concerns the target T1, TOP3A 917 (truncated) (Homo sapiens, UniProt Q13472 16-917).
T1 sequence: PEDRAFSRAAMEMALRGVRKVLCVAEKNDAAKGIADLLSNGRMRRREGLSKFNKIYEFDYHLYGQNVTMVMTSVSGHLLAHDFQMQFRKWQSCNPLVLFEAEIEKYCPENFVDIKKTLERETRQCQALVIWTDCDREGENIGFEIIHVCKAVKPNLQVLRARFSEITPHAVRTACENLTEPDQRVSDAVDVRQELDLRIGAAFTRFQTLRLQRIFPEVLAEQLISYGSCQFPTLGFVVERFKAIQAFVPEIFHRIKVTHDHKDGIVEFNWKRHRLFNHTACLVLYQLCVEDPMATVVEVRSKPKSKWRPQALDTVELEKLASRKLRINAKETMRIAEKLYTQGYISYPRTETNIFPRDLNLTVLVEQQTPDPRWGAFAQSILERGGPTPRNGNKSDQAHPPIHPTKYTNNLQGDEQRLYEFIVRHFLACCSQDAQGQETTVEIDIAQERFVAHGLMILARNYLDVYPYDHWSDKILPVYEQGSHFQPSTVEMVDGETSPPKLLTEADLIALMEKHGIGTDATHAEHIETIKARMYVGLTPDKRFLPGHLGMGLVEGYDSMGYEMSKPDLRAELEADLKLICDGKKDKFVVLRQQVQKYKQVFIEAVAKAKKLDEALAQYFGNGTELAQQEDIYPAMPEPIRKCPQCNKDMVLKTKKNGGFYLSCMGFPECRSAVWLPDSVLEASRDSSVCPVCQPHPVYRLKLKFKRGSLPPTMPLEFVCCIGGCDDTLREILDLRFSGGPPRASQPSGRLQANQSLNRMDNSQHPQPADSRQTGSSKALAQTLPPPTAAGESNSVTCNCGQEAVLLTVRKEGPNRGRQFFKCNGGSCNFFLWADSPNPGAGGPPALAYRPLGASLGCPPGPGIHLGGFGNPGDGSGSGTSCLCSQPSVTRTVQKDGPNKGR
In words: EMSA; no Mg2+ added; higher binding than full-length; 25 mM HEPES pH 7.5, 70 mM NaCl, 100 ug/ml BSA, 1 mM DTT, 10% glycerol, 10 fmol DNA in 20 ul, 37 C 15 min; 8% PAGE in 0.5x TBE at 4 C. The conditions noted are these: protein: recombinant; tags: 6xHis removed with TEV (cloning section: N-terminal TEV-cleavable 6xHis; purification section says C-terminal 6xHis); label: 5' 32P; single strand. For orientation: Mobility shift assays separate free from complexed probe on a gel.

As to TGTTATTATTATGTCCTACAAGCATTAATTAATTAACACA (ssDNA) [EMSA substrate (40 nt ssDNA)], the binding result is on record as “binds”.
